Several values for one entry are separate records, joined by “and”; a condition that tells them apart may be missing. Identical values can stand only once.
T1: human prolactin receptor (human, UniProt P16471 25-622)
T1 sequence (looked up): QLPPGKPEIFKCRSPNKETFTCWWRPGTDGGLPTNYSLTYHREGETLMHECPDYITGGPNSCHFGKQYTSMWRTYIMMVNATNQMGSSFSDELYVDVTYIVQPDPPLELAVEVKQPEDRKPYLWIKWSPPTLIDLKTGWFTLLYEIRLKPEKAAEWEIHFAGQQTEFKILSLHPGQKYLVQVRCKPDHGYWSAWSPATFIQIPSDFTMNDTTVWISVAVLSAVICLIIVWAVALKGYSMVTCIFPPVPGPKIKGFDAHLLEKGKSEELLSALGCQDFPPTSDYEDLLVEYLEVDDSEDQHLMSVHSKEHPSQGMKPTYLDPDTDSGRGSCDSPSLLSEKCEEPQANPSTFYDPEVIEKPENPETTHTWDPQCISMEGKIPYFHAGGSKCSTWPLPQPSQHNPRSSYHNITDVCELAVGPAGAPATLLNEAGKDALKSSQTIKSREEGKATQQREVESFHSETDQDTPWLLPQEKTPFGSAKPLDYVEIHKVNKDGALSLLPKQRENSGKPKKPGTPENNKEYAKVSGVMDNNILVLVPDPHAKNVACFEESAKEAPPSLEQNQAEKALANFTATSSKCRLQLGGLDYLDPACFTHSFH

B1: human prolactin (ligand, UniProt P01236 29-227, looked up)
chain: LPICPGGAARCQVTLRDLFDRAVVLSHYIHNLSSEMFSEFDKRYTHGRGFITKAINSCHTSSLATPEDKEQAQQMNQKDFLSLIVSILRSWNEPLYHLVTEVRGMQEAPEAILSKAVEIEEQTKRLLEGMELIVSQVHPETKENEIYPVWSGLPSLQMADEESRLSAYYNLLHCLRRDSHKIDNYLKLLKCRIIHNNNC

Target: T1, human prolactin receptor
Assay: cell-based or functional assay

| Molecule | T47-D cell proliferation (96 well MTS assay) (molar ratio hPRL-G129R:hPRL) | apoptosis (DNA fragmentation, TUNEL assay) in T-47D cells | tyrosine phosphorylation of STAT proteins in T47-D cells (anti-phosphotyrosine immunoblot) (ratio hPRL-G129R:hPRL) |
| --- | --- | --- | --- |
| G129R variant of human prolactin (from UniProt P01236 29-227) (ligand) | 1 and 2 | 1 | 5 |
| B1 |  | 4 ratio hPRL:G129R |  |

Reference: US20030022833A1 (GREENVILLE HOSPITAL SYSTEM, published 2003)
